Test: yeast display, Sf9 membrane polyspecificity reagent, FACS + sequencing; frameworks hold sequencing errors
In short: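 Genes from sorted yeast were amplified by colony PCR, read by MiSeq 2 × 250 sequencing and filtered on CDR length. These cells carried a synthetic nanobody library in Saccharomyces cerevisiae BJ5465 and were sorted by FACS into low and high (top ~1%) gates on anti-HA and streptavidin fluorescence. Polyreactivity is labelled according to the gate of origin.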

With “QVQLVESGGGLVQAGGSLRLSCAASGFTFQENAMGWYRQAPGKERELVAAISKSGGITYYADSVKGRFTISRDNAKNTVYLHMNSLKPEDTAVYYCNKGNAYVVYTSGYDYWGQGTQVTVSS” as the sequence, how does the “polyreactivity (PSR sort gate)” value read?
The value was “low polyreactivity”.

Which “polyreactivity (PSR sort gate)” value does the source give for “QVQLVESGGGLVQAGGSLRLSCAASGFTFQENAMGWYRQAPGKERELVAAISYGGGSTYYADSVKGRFTISRDNAKNTVYLQMNSLKPEDTAVYYCAADGGSAYAWYFAELYGYWGQGTQVTVSS” here?
Its value is “low polyreactivity”.

For “QVQLVESGGGLVQAGGSLRLSCAASGFTFQLYAMGWYRQAPGKERELVAAISSSGTSTYYADSVKGRFTISRDNAKNTVFLQMNSLKPEDTAVYYCAARGPYTYRRYGYWGQGTQVTVSS”, which “polyreactivity (PSR sort gate)” value is on record?
Its value is “high polyreactivity”.

Which “polyreactivity (PSR sort gate)” value does the source give for “QVQLVESGGGLVQAGGSLRLSCAASGFTFQNYAMGWYRQAPGKERELVAAISWGGGSTYYADSVKGRFTISRDNAQNTVYLQMNSLKPEDTAVYYCNAYEYLSAGYDYWGQGTQVTVSS” here?
Its value is “low polyreactivity”.

With “QVQLVESGGGLVQAGGSLRLSCAASGFTFQRYAKGWYRQAPGKERDLVAAITRNGGSTYYADSVKGRFTISRDNAKNTVYLQMNSLKPDDTAVYYCNAEWFQFYWYPHYKVTRYEYWGQVTQVTVSS” as the sequence, how does the “polyreactivity (PSR sort gate)” value read?
Its value is “high polyreactivity”.

Which “polyreactivity (PSR sort gate)” value does the source give for “QVQLVESGGGLVQAGGSLRLSCAASGFTFQYYAMGWYRQAPGKERELVAAISWSGASTYYADSVKGRFTISRDNAKNTVYLQMNSLKPEDTAVYYCAADYWGHEYDYWGQGTQVTVSS” here?
Its value is “high polyreactivity”.

For “QVQLVESGGGLVQAGGSLRLSCAASGFTFQYYAMGWYRQAPGKERELVAAISWSGTSPYYADSVKGRFTISRDNAKNTVYLQMISLKPADTAVYDCAASVWYYYSDYDYWGQGTQVTVSS”, which “polyreactivity (PSR sort gate)” value is on record?
The value was “high polyreactivity”.

Which “polyreactivity (PSR sort gate)” value does the source give for “QVQLVESGGGLVQAGGSLRLSCAASGFTFQYYAMGWYRQAPVKERELVAAINWSGGRTYYADSVKGRFTISRDNAKNTVYLQMNSLKPEDTAVYYCAAPRSFSGGYGYVSYDYWGQGTQVTVSS” here?
Its value is “high polyreactivity”.

Which “polyreactivity (PSR sort gate)” value does the source give for “QVQLVESGGGLVQAGGSLRLSCAASGFTFQYYDMGWYRQAPGKERELVAAISWSGGSTYYADSVKGRFTISRDNAKNTVYFQMNSLKPEDTAVYYCAAGYTRSRHYTPYDYWGQGTQVTVSS” here?
Its value is “high polyreactivity”.

Which “polyreactivity (PSR sort gate)” value does the source give for “QVQLVESGGGLVQAGGSLRLSCAASGFTFQYYTMGWYRQAPGKERELLAAITYSGSTYYADSVKGRFTISRDNAKNTVYLQMNSLKPEDTAVYYCNVYRGRYLYAWRPLGYWGQGTQVTVSS” here?
Its value is “high polyreactivity”.

Which “polyreactivity (PSR sort gate)” value does the source give for “QVQLVESGGGLVQAGGSLRLSCAASGFTFRAYAMGWYRQAPGKERELVAAISWGGGSTYYADSVKGRFTISRDNAKNTVYLQMNSLKPEDTAVYYCATERRRYNTEYEYWGQGTQVTVSS” here?
The value was “high polyreactivity”.

With “QVQLVESGGGLVQAGGSLRLSCAASGFTFRDYAMGWYRQAPGKEREFFADITFSGDNTRYADSVKGRFTISRDNAQNTVYLQMNSLKPEDTAVYYCNADRVVGPYDGYDYWGQGTQVTVSS” as the sequence, how does the “polyreactivity (PSR sort gate)” value read?
Its value is “low polyreactivity”.

Which “polyreactivity (PSR sort gate)” value does the source give for “QVQLVESGGGLVQAGGSLRLSCAASGFTFRDYAMGWYRQAPGKERELVAAITRSGGRTYYADSVKGRFTISRDNAKNTVYLQMNSLKPEDTAVYYCNALDYLYGGIYLEEDYWGQGTQVTVSS” here?
The value was “low polyreactivity”.

Which “polyreactivity (PSR sort gate)” value does the source give for “QVQLVESGGGLVQAGGSLRLSCAASGFTFRFYALGWYRQAPGKERELVAAISRRGGTTYYADSVKGRFTISRDNAKNTVYLQMNSLKPEDTAVYYCNKDWTYEHGYWGQGTQVTVSS” here?
The value was “high polyreactivity”.

For “QVQLVESGGGLVQAGGSLRLSCAASGFTFRFYAMGWYRQAPAKERELVAAISRGGSTYYADSVKGRFTISRDNAKYTVYLQMNSLKPEDTAVFYCAKRGRYGDYWGQGTLVTVSS”, which “polyreactivity (PSR sort gate)” value is on record?
The value was “high polyreactivity”.

Which “polyreactivity (PSR sort gate)” value does the source give for “QVQLVESGGGLVQAGGSLRLSCAASGFTFRIYAMGSYRQAPGKERELVAAISWAGGSTFYADSVKGRFTISRDNAKNTVYLQMNSLKPEDTAVYYCAADTAFHYDYWGQGTQVTVSS” here?
Its value is “low polyreactivity”.

For “QVQLVESGGGLVQAGGSLRLSCAASGFTFRIYAMGWYRQAPGKERELVATISWSGTSTYYADSVKGRFTISRDYAKNTVFFQMNSLNPEDTAVYYCAKDGVSFYWLNKYYYWGQGTQVTVSS”, which “polyreactivity (PSR sort gate)” value is on record?
The value was “low polyreactivity”.

Which “polyreactivity (PSR sort gate)” value does the source give for “QVQLVESGGGLVQAGGSLRLSCAASGFTFRKNVMGWYRQATGKERELVAVISSSGGSTYYADSVKGRFTISRDNAKNTVYLPMNRLKPEVTAVYYCNAGRYGSNLEYWGQGTQLTVSS” here?
The value was “low polyreactivity”.

Which “polyreactivity (PSR sort gate)” value does the source give for “QVQLVESGGGLVQAGGSLRLSCAASGFTFRKYAMGLYRQAPGKERELVASITSGGSTYYADSVKGRFTISRDNAKNTVYLQMNSLKPEDNAVYYCNAVKATLASGRLRGAYYYWGQGNQVTVSS” here?
Its value is “high polyreactivity”.

For “QVQLVESGGGLVQAGGSLRLSCAASGFTFRKYAMGWYRPAPGKERELVAGITSGGSTNYADSVKGRFTISRDNAKNTVYLQMNSLKPEDTSVYYCNAARYYAYIGDYWGQGTQVTVSS”, which “polyreactivity (PSR sort gate)” value is on record?
Its value is “high polyreactivity”.

Which “polyreactivity (PSR sort gate)” value does the source give for “QVQLVESGGGLVQAGGSLRLSCAASGFTFRLYVMGWYIQAPGKERELVAAISSRGGSTYYADSLKGRFTISRDNAKNTVNLQMNSLKPEDTAVYYCAADRPRGRETVDYWGQGTQVTVSS” here?
The value was “high polyreactivity”.

For “QVQLVESGGGLVQAGGSLRLSCAASGFTFRNYAMGWYRQAPGKERELVAAISKSGGSTYYADSVKGRFTISRDNAKNTVYLQMNSLKPEDTAVYYCATDYLYVYGFEYYYWGQGTQVTVSS”, which “polyreactivity (PSR sort gate)” value is on record?
Its value is “high polyreactivity”.

Which “polyreactivity (PSR sort gate)” value does the source give for “QVQLVESGGGLVQAGGSLRLSCAASGFTFRNYAMGWYRQAPGKERELVAAISQSGGITYYADTVKGRFTISRDNAKNTVYLQMYSLKPEDTAVYYCAAERFPRSSKGYFRTYDYWGQGTQVTVSS” here?
The value was “high polyreactivity”.

For “QVQLVESGGGLVQAGGSLRLSCAASGFTFRQYAMGWYRQAPGKERELVAAISSGGSTYYADSVKGRFTISRDNAKNTVYLQMNSLKPEDTAVYYCNAVARYYVAYDMYWGQGTQVTVSS”, which “polyreactivity (PSR sort gate)” value is on record?
Its value is “high polyreactivity”.

For “QVQLVESGGGLVQAGGSLRLSCAASGFTFRRNAMGWYRQAPGKERELVAAITYNGGTTYYADSVKGRFTISRDNAKNTVYLLMNSLKPEDTAVYYCNAPYGRQGYDYWGQGTQVTVSS”, which “polyreactivity (PSR sort gate)” value is on record?
The value was “low polyreactivity”.

With “QVQLVESGGGLVQAGGSLRLSCAASGFTFRRYAMGGYRQAPGKERELVAAISANGGSTYYADSVKGRFTISRDNAKNTVYLQMNSLKPEDTAVYYCNARKYTQSIHYDYWGQGTQVTVSS” as the sequence, how does the “polyreactivity (PSR sort gate)” value read?
The value was “high polyreactivity”.

For “QVQLVESGGGLVQAGGSLRLSCAASGFTFRRYAMGWYRQAPGKERELVASISWTGGSTHYADSVKGRFTISRDNAKNTVYLQMNSLKPEDSAVYYSNTVWYYLRSFNIDHYYDYWGQGTQVTVSS”, which “polyreactivity (PSR sort gate)” value is on record?
The value was “high polyreactivity”.

Which “polyreactivity (PSR sort gate)” value does the source give for “QVQLVESGGGLVQAGGSLRLSCAASGFTFRRYAMGWYRQAPGKEREMVAVINVSDGSTYYADSVKGRFTISRDNAKNTVYLQMNSLKPEDTAVYYCAAYLYNRPYQLPGYYDGYGYWGQGTQVTVSS” here?
Its value is “low polyreactivity”.

For “QVQLVESGGGLVQAGGSLRLSCAASGFTFRRYAMGWYRQAPGQDRELVAAISYRGGTYYADSVKGRFTISRDNAKNTVYLQMNSLKPEDTAVYYCNARYRGKYSSYGYWGQGTQVTVSS”, which “polyreactivity (PSR sort gate)” value is on record?
The value was “high polyreactivity”.

Which “polyreactivity (PSR sort gate)” value does the source give for “QVQLVESGGGLVQAGGSLRLSCAASGFTFRRYTMGWYRQAPGKERELVAAISGSGGSTYYADSVKGRFTISRDNAKNTVYLQMNSLKPEDTAVYYCNAPYLHYVIVFTDYSQRYDYWGQGTQVTVSS” here?
The value was “high polyreactivity”.

Which “polyreactivity (PSR sort gate)” value does the source give for “QVQLVESGGGLVQAGGSLRLSCAASGFTFRSNMGWYRQAPGKEREFVAAITKSGGSTYYADSVKGRFTISRDNAKNTVYLQMNSLKPEDTAVYYCATKVDTYVFRYYYWGQGTQVTVSS” here?
The value was “high polyreactivity”.

For “QVQLVESGGGLVQAGGSLRLSCAASGFTFRSYAMGWYRQAPGKVRELVAAISLGGTSTYYADSVKGRFTISRDNAKNTVYLPMNSLKPEDTAVYYCAARSYGHYGYWGQGTQVTVSS”, which “polyreactivity (PSR sort gate)” value is on record?
Its value is “high polyreactivity”.

For “QVQLVESGGGLVQAGGSLRLSCAASGFTFRTNTMGWYRQAPGKERELVAAITYRGGRTYADSVKGRFTISRDNAKNTVYLQMNSLKPEDTAVYYCAARHYRGTAVDYWGQGTQVTVSS”, which “polyreactivity (PSR sort gate)” value is on record?
The value was “high polyreactivity”.

Which “polyreactivity (PSR sort gate)” value does the source give for “QVQLVESGGGLVQAGGSLRLSCAASGFTFRTNVMGWYRQAPGKERELVAVITRDGGSTYYADSVKGRFTISRDNAKNTVYLQMNSLKPEDTAVYYCNAAAFINFILYDYWGQGTQVTVSS” here?
Its value is “high polyreactivity”.

For “QVQLVESGGGLVQAGGSLRLSCAASGFTFRTYAMGWSRQAPGKERELVAAITVSGGTYYADSVKGRFTISRDNAKNTVYLQMNSLKPEDTAVYYCAAGYWNDFDWGQGTQVTVSS”, which “polyreactivity (PSR sort gate)” value is on record?
Its value is “low polyreactivity”.

For “QVQLVESGGGLVQAGGSLRLSCAASGFTFRTYAMGWYRQAPGKERELVAAITGRGSNTYYADSVKGRFTISRDNAKNTVYLQMNSLKPEDTAVYYCNARYYDYRVALRYDYWGQGTQVTVSS”, which “polyreactivity (PSR sort gate)” value is on record?
The value was “high polyreactivity”.

For “QVQLVESGGGLVQAGGSLRLSCAASGFTFRTYAMGWYRQAPGKERELVSAITGSGGRTYYADSVKGRFTISRDYAKNTVYLQMNSLKPEDTAVYYCAADYVVPWAFWTFRFDYWGQGTQVTVSS”, which “polyreactivity (PSR sort gate)” value is on record?
Its value is “low polyreactivity”.

For “QVQLVESGGGLVQAGGSLRLSCAASGFTFRVDAMGWYRQAPGKERELVAAISVRGDSTYYADSVKGRFTISRDNAKNTVYVQMNSLKPEDTAVYYSAAAVRTISRFTFYYWGQGTQVTVSS”, which “polyreactivity (PSR sort gate)” value is on record?
The value was “high polyreactivity”.

For “QVQLVESGGGLVQAGGSLRLSCAASGFTFRWYTMGWYRQAPGKERELFAAITGSGCTTYYADSVKGRFTISRDNAKNTVYLQMNSLKPEDTAVYYCAVVSGSLRTRYTYYYWGLGTQVTVSS”, which “polyreactivity (PSR sort gate)” value is on record?
The value was “high polyreactivity”.

With “QVQLVESGGGLVQAGGSLRLSCAASGFTFRWYTMGWYRQAPGKERELVASIRYGGGSTYYADSVKGRFTISRDNAKNTVYLQMNSLKPEDTAVYYCAAESAWTSQYDYWGVGTQVTVSS” as the sequence, how does the “polyreactivity (PSR sort gate)” value read?
Its value is “high polyreactivity”.

For “QVQLVESGGGLVQAGGSLRLSCAASGFTFRWYTMVWYRQAPGKERELVAAITGSGCTTYYADSVKGRFTISRDNAKNTVYLQMNSLKPEDTAVYYCAARTATSSPSWYEYWGQGTQVTVSS”, which “polyreactivity (PSR sort gate)” value is on record?
The value was “high polyreactivity”.

For “QVQLVESGGGLVQAGGSLRLSCAASGFTFRYYAMGWYRQAHGKERELVASITGGGRTYYADSVKGRFTISRDNAKNTVYLQMNSLKPEDTAVYYCATLLAYRLGSGYDSWGQGTQVTVSS”, which “polyreactivity (PSR sort gate)” value is on record?
Its value is “high polyreactivity”.

With “QVQLVESGGGLVQAGGSLRLSCAASGFTFRYYAMGWYRQAPGKEREFVAAIRRSGANTYYADSVKGRFTISRDNAKNTVYLQMNSLKPEDTAVYYCAADKNYYPYKFDYWGQGTQVTVSS” as the sequence, how does the “polyreactivity (PSR sort gate)” value read?
Its value is “high polyreactivity”.

— the nanobody polyreactivity screen of Harvey et al. (2022)
